1 molecule from patent CN113151186A (UNIV SHANGHAI JIAOTONG, dated 2021) can be followed below.

As usually defined, the Kd is the equilibrium constant for the complex coming apart. Low readings indicate higher affinity, high ones lower affinity. By koff is commonly meant the rate constant with which the complex falls apart. Low values mean a long-lived complex, high ones a short-lived complex. By kon is commonly meant the rate constant with which the complex forms. Read a high kon as fast association.

For this assay, the target named is T1, 全长CD271蛋白抗原 (human CD271, full-length protein antigen) (human, UniProt P08138 29-250, limits assumed).
T1 construct: Printed only as full-length CD271 protein; also called CD271全长蛋白; 全长抗原CD271
T1 sequence (looked up): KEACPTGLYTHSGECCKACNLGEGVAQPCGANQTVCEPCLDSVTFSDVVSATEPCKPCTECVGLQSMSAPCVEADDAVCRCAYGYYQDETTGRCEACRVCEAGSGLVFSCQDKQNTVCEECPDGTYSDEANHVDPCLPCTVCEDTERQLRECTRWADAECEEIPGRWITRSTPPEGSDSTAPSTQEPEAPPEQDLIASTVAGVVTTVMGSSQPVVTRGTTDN
As to the kind of experiment: BLI (ForteBio), full-length CD271 immobilised on ProA sensor, antibody at 30-130 nM.

B1: 抗人CD271单克隆抗体 CD271T-2 (小鼠腹水纯化抗体, 杂交瘤细胞株CD271T-2, CGMCC 21494) (antibody, V domains shown)
VH: QVTLKESGPGILKPSQTLSLTCSFSGFSLSTSGMGVGWIRQPSGKGLEWLAHIWWDDDKYYNPSLKSQLTISKDTSRNQVFLKITSVDTAGTATYYCARRDYGNYYAMDYWGQGTSVTVS
VL: DIVLTQSPASLAVSLGQRATISCKASQSVDYDGDSYMNWYQQKPGQPPKLLIYAASNLESGIPARFSGSGSGTDFTLNIHPVEEEDAATYYCQQSNEDPFTFGSGTKLEIK
notes: It was purified from mouse ascites on MabSelect SuRe; also called CD271T-2腹水纯化抗体; 抗人CD271腹水抗体
For the molecule B1, the dissociation constant (Kd) is 3.37 nM, the koff was 0.000225 s⁻¹ and the kon is 66900 M⁻¹ s⁻¹.
